Data taken from PMC5746218.

Molecular target: PitA (Haloferax volcanii) (Haloferax volcanii (endogenous in strain H26))
Experiment: SEC; Sephacryl S-300 gel filtration of purified PitA against standard proteins (thyroglobulin, ferritin, KatG, BSA, cytochrome c554, cytochrome c)

stoichiometry N (molecules of the subunit): > 10
Substance: PitA (Haloferax volcanii) (enzyme)
